The record followed here is the supplement of paper PMC5998384.

Data set [1] has as its system HeLa Kyoto. Briefly: solubility in G1/S (NP-40 vs SDS abundance) (log2 ratio); higher = more soluble. The following applies: cell cycle stage: G1/S.
Data set [2] deals with HeLa Kyoto. Briefly: thermal stability score vs G1/S (z-score of summed log2 fold changes over temperatures); higher = more thermally stable than in G1/S.
The test system of data set [3] is HeLa Kyoto. Briefly: solubility change mitosis vs G1/S (difference of NP-40 vs SDS log2 ratios) (log2 ratio difference); higher = more soluble in mitosis.
The test system of data set [4] is HeLa Kyoto. Briefly: melting temperature (median over replicates), in situ; higher = more thermally stable.
The mark [5] stands for this setting: cell cycle stage: early G1 (4.5 h after nocodazole release).
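Throughout, for melting temperature (median over replicates), in situ: HeLa Kyoto cells synchronized by double thymidine or nocodazole block, proteins quantified by TMT10plex mass spectrometry, three independent biological replicates.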
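Throughout, for solubility change mitosis vs G1/S (difference of NP-40 vs SDS log2 ratios): synchronized HeLa Kyoto cells (double thymidine block for G1/S, nocodazole release for mitosis), protein amounts in NP-40 versus SDS lysates quantified by mass spectrometry, three biological replicates.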
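Throughout, for solubility in G1/S (NP-40 vs SDS abundance): HeLa Kyoto cells arrested at G1/S by double thymidine block, proteins quantified by TMT10plex mass spectrometry in mild NP-40 versus SDS extracts, three biological replicates.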
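Throughout, for thermal stability score vs G1/S (z-score of summed log2 fold changes over temperatures): synchronized HeLa Kyoto cells, proteins quantified by TMT10plex mass spectrometry, three biological replicates, mitosis taken 0.5 h after nocodazole release, G1/S directly after double thymidine block.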

Regarding “MASSGEDISNDDDDMHPAAAGMADGVHLLGFSDEILLHILSHVPSTDLILNVRRTCRKLAALCLDKSLIHTVLLQKDYQASEDKVRQLVKEIGREIQQLSMAGCYWLPGSTVEHVARCRSLVKVNLSGCHLTSLRLSKMLSALQHLRSLAIDVSPGFDASQLSSECKATLSRVRELKQTLFTPSYGVVPCCTSLEKLLLYFEILDRTREGAILSGQLMVGQSNVPHYQNLRVFYARLAPGYINQEVVRLYLAVLSDRTPQNLHAFLISVPGSFAESGATKNLLDSMARNVVLDALQLPKSWLNGSSLLQHMKFNNPFYFSFSRCTLSGGHLIQQVINGGKDLRSLASLNLSGCVHCLSPDSLLRKAEDDIDSSILETLVASCCNLRHLNLSAAHHHSSEGLGRHLCQLLARLRHLRSLSLPVCSVADSAPRADRAPAQPAMHAVPRGFGKKVRVGVQSCPSPFSGQACPQPSSVFWSLLKNLPFLEHLELIGSNFSSAMPRNEPAIRNSLPPCSRAQSVGDSEVAAIGQLAFLRHLTLAQLPSVLTGSGLVNIGLQCQQLRSLSLANLGMMGKVVYMPALSDMLKHCKRLRDLRLEQPYFSANAQFFQALSQCPSLQRLCLVSRSGTLQPDAVLAFMARCLQVVMCHLFTGESLATCKSLQQSLLRSFQAERPALNVVIFPLLHEGLTDVIRDVPLVHLDEITLFKSRVAEEPPNLWW [FBXL18]”, the “solubility in G1/S (log2)” value in the data set with HeLa Kyoto [1] worked out at 0.1. Further, the thermal stability score was -1.04 with HeLa Kyoto [2] (setting [5]) and -1.17 in the data set with HeLa Kyoto [2] (cell cycle stage: mitosis). Also, the “solubility change mitosis (log2)” value in the data set with HeLa Kyoto [3] is -0.164. The melting temperature turned out to be 53.4 °C in the data set with HeLa Kyoto [4] (cell cycle stage: G1/S) and 53 °C in the data set with HeLa Kyoto [4] (cell cycle stage: mitosis).

In the case of “MASSRCPAPRGCRCLPGASLAWLGTVLLLLADWVLLRTALPRIFSLLVPTALPLLRVWAVGLSRWAVLWLGACGVLRATVGSKSENAGAQGWLAALKPLAAALGLALPGLALFRELISWGAPGSADSTRLLHWGSHPTAFVVSYAAALPAAALWHKLGSLWVPGGQGGSGNPVRRLLGCLGSETRRLSLFLVLVVLSSLGEMAIPFFTGRLTDWILQDGSADTFTRNLTLMSILTIASAVLEFVGDGIYNNTMGHVHSHLQGEVFGAVLRQETEFFQQNQTGNIMSRVTEDTSTLSDSLSENLSLFLWYLVRGLCLLGIMLWGSVSLTMVTLITLPLLFLLPKKVGKWYQLLEVQVRESLAKSSQVAIEALSAMPTVRSFANEEGEAQKFREKLQEIKTLNQKEAVAYAVNSWTTSISGMLLKVGILYIGGQLVTSGAVSSGNLVTFVLYQMQFTQAVEVLLSIYPRVQKAVGSSEKIFEYLDRTPRCPPSGLLTPLHLEGLVQFQDVSFAYPNRPDVLVLQGLTFTLRPGEVTALVGPNGSGKSTVAALLQNLYQPTGGQLLLDGKPLPQYEHRYLHRQVAAVGQEPQVFGRSLQENIAYGLTQKPTMEEITAAAVKSGAHSFISGLPQGYDTEVDEAGSQLSGGQRQAVALARALIRKPCVLILDDATSALDANSQLQVEQLLYESPERYSRSVLLITQHLSLVEQADHILFLEGGAIREGGTHQQLMEKKGCYWAMVQAPADAPE [TAP1]”, the “solubility in G1/S (log2)” value in the data set on HeLa Kyoto [1] is -0.0535. Besides, the thermal stability score was 0.594 in the data set on HeLa Kyoto [2] (setting [5]) and 1.74 in the data set on HeLa Kyoto [2] (cell cycle stage: mitosis). Moreover, the “solubility change mitosis (log2)” value with HeLa Kyoto [3] is -0.112. For the same sequence, the melting temperature came out at 49.8 °C in the data set on HeLa Kyoto [4] (cell cycle stage: G1/S) and 50.5 °C with HeLa Kyoto [4] (cell cycle stage: mitosis).

As to “MASTDYSTYSQAAAQQGYSAYTAQPTQGYAQTTQAYGQQSYGTYGQPTDVSYTQAQTTATYGQTAYATSYGQPPTGYTTPTAPQAYSQPVQGYGTGAYDTTTATVTTTQASYAAQSAYGTQPAYPAYGQQPAATAPTRPQDGNKPTETSQPQSSTGGYNQPSLGYGQSNYSYPQVPGSYPMQPVTAPPSYPPTSYSSTQPTSYDQSSYSQQNTYGQPSSYGQQSSYGQQSSYGQQPPTSYPPQTGSYSQAPSQYSQQSSSYGQQSSFRQDHPSSMGVYGQESGGFSGPGENRSMSGPDNRGRGRGGFDRGGMSRGGRGGGRGGMGSAGERGGFNKPGGPMDEGPDLDLGPPVDPDEDSDNSAIYVQGLNDSVTLDDLADFFKQCGVVKMNKRTGQPMIHIYLDKETGKPKGDATVSYEDPPTAKAAVEWFDGKDFQGSKLKVSLARKKPPMNSMRGGLPPREGRGMPPPLRGGPGGPGGPGGPMGRMGGRGGDRGGFPPRGPRGSRGNPSGGGNVQHRAGDWQCPNPGCGNQNFAWRTECNQCKAPKPEGFLPPPFPPPGGDRGRGGPGGMRGGRGGLMDRGGPGGMFRGGRGGDRGGFRGGRGMDRGGFGGGRRGGPGGPPGPLMEQMGGRRGGRGGPGKMDKGEHRQERRDRPY [EWSR1]”, in the data set with HeLa Kyoto [1], the “solubility in G1/S (log2)” value amounted to 0.0308. Besides, the thermal stability score in the data set on HeLa Kyoto [2] (setting [5]) stood at 0.0358; with HeLa Kyoto [2] (cell cycle stage: mitosis) it was 0.453. Also, in the data set with HeLa Kyoto [3], the “solubility change mitosis (log2)” value worked out at 0.157. The values for the melting temperature in the data set with HeLa Kyoto [4] (cell cycle stage: G1/S) and in the data set on HeLa Kyoto [4] (cell cycle stage: mitosis) were 55.6 °C and 55.8 °C, respectively.

Turning to “MATAVSRPCAGRSRDILWRVLGWRIVASIVWSVLFLPICTTVFIIFSRIDLFHPIQWLSDSFSDLYSSYVIFYFLLLSVVIIIISIFNVEFYAVVPSIPCSRLALIGKIIHPQQLMHSFIHAAMGMVMAWCAAVITQGQYSFLVVPCTGTNSFGSPAAQTCLNEYHLFFLLTGAFMGYSYSLLYFVNNMNYLPFPIIQQYKFLRFRRSLLLLVKHSCVESLFLVRNFCILYYFLGYIPKAWISTAMNLHIDEQVHRPLDTVSGLLNLSLLYHVWLCGVFLLTTWYVSWILFKIYATEAHVFPVQPPFAEGSDECLPKVLNSNPPPIIKYLALQDLMLLSQYSPSRRQEVFSLSQPGGHPHNWTAISRECLNLLNGMTQKLILYQEAAATNGRVSSSYPVEPKKLNSPEETAFQTPKSSQMPRPSVPPLVKTSLFSSKLSTPDVVSPFGTPFGSSVMNRMAGIFDVNTCYGSPQSPQLIRRGPRLWTSASDQQMTEFSNPSPSTSISAEGKTMRQPSVIYSWIQNKREQIKNFLSKRVLIMYFFSKHPEASIQAVFSDAQMHIWALEGLSHLVAASFTEDRFGVVQTTLPAILNTLLTLQEAVDKYFKLPHASSKPPRISGSLVDTSYKTLRFAFRASLKTAIYRITTTFGEHLNAVQASAEHQKRLQQFLEFKE [NDC1]”, in the data set on HeLa Kyoto [1], the “solubility in G1/S (log2)” value was -0.187. Besides, the thermal stability score is -4.66 with HeLa Kyoto [2] (setting [5]) and -7.41 in the data set with HeLa Kyoto [2] (cell cycle stage: mitosis). Also, the “solubility change mitosis (log2)” value with HeLa Kyoto [3] was determined as 0.182. Further, the melting temperature worked out at 52.7 °C with HeLa Kyoto [4] (cell cycle stage: G1/S) and 51.3 °C with HeLa Kyoto [4] (cell cycle stage: mitosis).
